Results published in publication PMC5360526 (Hepatology (Baltimore, Md.), 2017).

Molecular target: Recombinant human MATα1 (human, UniProt Q00266 1-395)
Assay: pull-down

Chain of Recombinant human MATα1 (Q00266 whole entry): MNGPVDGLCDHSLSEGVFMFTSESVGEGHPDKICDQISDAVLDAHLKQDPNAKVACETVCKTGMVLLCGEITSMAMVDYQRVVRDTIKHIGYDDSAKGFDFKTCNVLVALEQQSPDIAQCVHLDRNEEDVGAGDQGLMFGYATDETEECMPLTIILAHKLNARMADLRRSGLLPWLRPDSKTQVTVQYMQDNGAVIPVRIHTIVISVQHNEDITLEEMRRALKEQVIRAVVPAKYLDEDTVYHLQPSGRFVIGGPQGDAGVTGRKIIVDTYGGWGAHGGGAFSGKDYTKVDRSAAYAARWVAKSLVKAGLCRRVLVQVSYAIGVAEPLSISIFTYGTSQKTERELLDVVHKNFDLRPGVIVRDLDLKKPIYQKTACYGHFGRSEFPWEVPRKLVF

- binding result: binds
B1: Recombinant human PHB1 (natural protein, UniProt P35232 1-272, looked up)
chain: MAAKVFESIGKFGLALAVAGGVVNSALYNVDAGHRAVIFDRFRGVQDIVVGEGTHFLIPWVQKPIIFDCRSRPRNVPVITGSKDLQNVNITLRILFRPVASQLPRIFTSIGEDYDERVLPSITTEILKSVVARFDAGELITQRELVSRQVSDDLTERAATFGLILDDVSLTHLTFGKEFTEAVEAKQVAQQEAERARFVVEKAEQQKKAAIISAEGDSKAAELIANSLATAGDGLIELRKLEAAEDIAYQLSRSRNITYLPAGQSVLLQLPQ
